These results are taken from patent US20240141072A1 (published 2024).

Changes are numbered by the printed parent chain.

This assay concerns the target T1, biotinylated human DLL3 protein expressed as a human IgG1 fusion protein (human, UniProt Q9NYJ7 27-492, limits assumed, biotinylated).
T1 sequence: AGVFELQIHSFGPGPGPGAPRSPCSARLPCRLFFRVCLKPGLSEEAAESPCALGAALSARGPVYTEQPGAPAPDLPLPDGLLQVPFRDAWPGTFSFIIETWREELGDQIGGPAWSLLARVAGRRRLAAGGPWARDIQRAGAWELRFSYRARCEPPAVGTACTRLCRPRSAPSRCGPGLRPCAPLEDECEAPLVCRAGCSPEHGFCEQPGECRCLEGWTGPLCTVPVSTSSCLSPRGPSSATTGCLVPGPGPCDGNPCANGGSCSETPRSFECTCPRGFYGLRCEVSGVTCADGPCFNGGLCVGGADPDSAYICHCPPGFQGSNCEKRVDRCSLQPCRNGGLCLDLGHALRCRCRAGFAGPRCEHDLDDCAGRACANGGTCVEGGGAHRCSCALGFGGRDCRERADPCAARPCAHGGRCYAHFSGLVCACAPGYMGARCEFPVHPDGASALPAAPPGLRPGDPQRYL
The assay can be described thus: Octet BLI, single 50 nM. The gist of the method: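 Analyte: trispecific anti-DLL3 proteins in conditioned medium, concentration known; ligand: captured DLL3 fusion; output: binding affinity.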
A general note: Biolayer interferometry detects binding as a change in optical thickness at a sensor tip.

B1: 3G06 anti-DLL3 trispecific protein (other)
chain: EVQLVESGGGLVQPGGSLTLSCAASGSSVKFLSMAWYRQAPGKKRELVAGISADGSTLYIDSVKGRFTISRDNAKNSVYLQMNSLRAEDTAVYYCYAYRWTTRRTYWGQGTLVTVSS
notes: not shown: linker 1808, anti-albumin sdAb, linker 1808, anti-CD3 fragment, His6 1819
For orientation: Kd means the equilibrium constant for the complex coming apart. In turn, B1 registered a dissociation constant Kd of 12 nM. In other words, the double-digit nanomolar range.

B2: 4B09 anti-DLL3 trispecific protein (other)
chain: B1 chain with K30S, L58D, D61S, R99S, R104Y
notes: as for B1
In turn, B2 returned an equilibrium dissociation constant (Kd) of 5.4 nM.

B3: 4D05 anti-DLL3 trispecific protein (other)
chain: B1 chain with V29S, K30S, L58V
notes: as for B1
In the case of B3, the Kd was determined as 6.5 nM.

B4: 4B01 anti-DLL3 trispecific protein (other)
chain: B1 chain with A53R, L58D, R104F
notes: as for B1
B4 displayed a dissociation constant Kd of 11 nM.

B5: 4D02 anti-DLL3 trispecific protein (other)
chain: B1 chain with S28K, K30S, D54R, L58D, R99Q, R104Y
notes: as for B1
Regarding B5, the Kd is 30 nM.

B6: 4C01 anti-DLL3 trispecific protein (other)
chain: B1 chain with K30R, L58V, T101K, R104Y
notes: as for B1
In turn, B6 showed a Kd of 5.1 nM. Compared with the last molecule, the Kd is about 5.9-fold lower.

B7: 4A010 anti-DLL3 trispecific protein (other)
chain: B1 chain with K30R, L58V, R104Y, T105K
notes: as for B1
The molecule B7 had a dissociation constant Kd of 2.3 nM.

B8: 3G07 anti-DLL3 trispecific protein (other)
chain: B1 chain with K30S, A53R, L58D, T102S, R104Y
notes: as for B1
For B8, the dissociation constant (Kd) is 13 nM. This Kd lies about 5.7-fold higher than the previous one.

B9: 3H010 anti-DLL3 trispecific protein (other)
chain: B1 chain with K30S, L58A
notes: as for B1
On to B9, for which the dissociation constant Kd was 8.6 nM.

B10: 4A01 anti-DLL3 trispecific protein (other)
chain: B1 chain with K30R, A53Q, L58D, T101R, R104Y
notes: as for B1
In the case of B10, the Kd came out at 10 nM.

B11: 4E06 anti-DLL3 trispecific protein (other)
chain: B1 chain with S27T, K30S, L58D, D61R, R104L
notes: as for B1
Turning to B11, the Kd was determined as 10 nM.

B12: 4D06 anti-DLL3 trispecific protein (other)
chain: B1 chain with A53P, L58D, R104Y, T105R
notes: as for B1
B12 showed a Kd of 7.5 nM.

B13: 4E07 anti-DLL3 trispecific protein (other)
chain: B1 chain with S28R, K30S, L58M, R104L
notes: as for B1
Regarding B13, the Kd was 11 nM. This Kd and that of the molecule before are within 1.5-fold of each other.

B14: 3G011 anti-DLL3 trispecific protein (other)
chain: B1 chain with S28R, K30S, L58G, T101A, R104Y
notes: as for B1
B14 had a Kd of 17 nM.

B15: 4E01 anti-DLL3 trispecific protein (other)
chain: B1 chain with K30S, M34V, A53R, L58D, T101R, R104Y
notes: as for B1
With B15, the Kd was 11 nM.

B16: 4C02 anti-DLL3 trispecific protein (other)
chain: B1 chain with S28K, K30S, L58T, R104F
notes: as for B1
On to B16, for which the affinity, expressed as Kd, was 6.8 nM.

B17: 3H03 anti-DLL3 trispecific protein (other)
chain: B1 chain with K30R, A53T, L58D, Y98L, R104Y
notes: as for B1
With B17, the Kd turned out to be 9.9 nM.

B18: 3H09 anti-DLL3 trispecific protein (other)
chain: B1 chain with G26K, K30S, L58D, R104A
notes: as for B1
In turn, B18 gave a dissociation constant (Kd) of 14 nM. The Kd values of the last two molecules are within 1.5-fold of each other.

B19: 4D04 anti-DLL3 trispecific protein (other)
chain: B1 chain with K30S, M34I, A53K, L58D, R104M
notes: as for B1
B19: the Kd is 8.6 nM.

B20: 4A011 anti-DLL3 trispecific protein (other)
chain: B1 chain with S28K, K30S, L58T, T101K, R104Y
notes: as for B1
For B20, binding was put at a Kd of 5.6 nM.

B21: 4B02 anti-DLL3 trispecific protein (other)
chain: B1 chain with S28R, K30S, L58T, R104F
notes: as for B1
On to B21, for which the equilibrium dissociation constant (Kd) was determined as 7.1 nM. This Kd and that of the molecule before are within 1.5-fold of each other.

B22: 4C08 anti-DLL3 trispecific protein (other)
chain: B1 chain with A23V, S28Q, K30S, L58D, I60F, T102R, R104Y
notes: as for B1
On to B22, for which the Kd came out at 16 nM.

B23: 4C010 anti-DLL3 trispecific protein (other)
chain: B1 chain with S28K, K30S, L32M, L58D, R104L
notes: as for B1
B23 gave an equilibrium dissociation constant (Kd) of 7 nM. Against the preceding molecule, the Kd is about 2.3-fold lower.

B24: 4D01 anti-DLL3 trispecific protein (other)
chain: B1 chain with K30R, L58V
notes: as for B1
The molecule B24 had a dissociation constant Kd of 3.7 nM. This Kd lies about 1.9-fold lower than the previous one.

B25: 3G08 anti-DLL3 trispecific protein (other)
chain: B1 chain with S28R, K30S, A53K, L58D, R104V
notes: as for B1
In turn, B25 returned a dissociation constant Kd of 12 nM.

B26: 4B08 anti-DLL3 trispecific protein (other)
chain: B1 chain with K30S, L32M, L58D, D61A, R104S
notes: as for B1
On to B26, for which binding was put at a Kd of 10 nM.

B27: 4D03 anti-DLL3 trispecific protein (other)
chain: B1 chain with K30R, D54T, L58D, T102R, R104Y
notes: as for B1
With B27, the Kd amounted to 26 nM.

B28: 4D010 anti-DLL3 trispecific protein (other)
chain: B1 chain with K30S, L58D, D61H, T101R, R104Y
notes: as for B1
The molecule B28 gave a dissociation constant Kd of 9.9 nM.

B29: 4A04 anti-DLL3 trispecific protein (other)
chain: B1 chain with S28R, K30S, D54R, L58D, T101S, R104Y
notes: as for B1
Regarding B29, the dissociation constant (Kd) was determined as 35 nM.

B30: 4B06 anti-DLL3 trispecific protein (other)
chain: B1 chain with S28R, K30S, L58D, I60F, T102R, R104Y
notes: as for B1
Regarding B30, the Kd is 16 nM.

B31: 4A08 anti-DLL3 trispecific protein (other)
chain: B1 chain with K30S, L58N, T101R, R104Y
notes: as for B1
As for B31, the Kd came out at 24 nM.

B32: 3G09 anti-DLL3 trispecific protein (other)
chain: B1 chain with K30S, F31V, L58D, D61G, R104T
notes: as for B1
In the case of B32, binding was characterised by a dissociation constant (Kd) of 7.3 nM.

B33: 3G010 anti-DLL3 trispecific protein (other)
chain: B1 chain with K30S, A53V, L58D, T101R, R104Y
notes: as for B1
In turn, B33 registered a Kd of 6.9 nM.

B34: 4A09 anti-DLL3 trispecific protein (other)
chain: B1 chain with L58D, D61G, R104V
notes: as for B1
For B34, the Kd was determined as 9 nM.

B35: 4A02 anti-DLL3 trispecific protein (other)
chain: B1 chain with K30R, A53N, L58D, T101K, R104Y
notes: as for B1
In turn, B35 returned a Kd of 9 nM.

B36: 4E010 anti-DLL3 trispecific protein (other)
chain: B1 chain with L58D, T101R, R104Y
notes: as for B1
Regarding B36, the dissociation constant (Kd) was found to be 9 nM. That is a single-digit nanomolar value.

B37: 4C03 anti-DLL3 trispecific protein (other)
chain: B1 chain with S28K, K30S, L32M, A53V, L58D, T101R, R104Y
notes: as for B1
B37 gave a Kd of 6.6 nM.

B38: 4C05 anti-DLL3 trispecific protein (other)
chain: B1 chain with K30S, F31N, L58A
notes: as for B1
Regarding B38, the Kd is 8.3 nM.

B39: 4C011 anti-DLL3 trispecific protein (other)
chain: B1 chain with S28R, K30S, L58V, T102R, R104Y
notes: as for B1
B39 displayed a Kd of 6 nM.

B40: 3H01 anti-DLL3 trispecific protein (other)
chain: B1 chain with A23V, A53G, L58T
notes: as for B1
In the case of B40, the dissociation constant (Kd) came out at 9 nM. This Kd lies about 1.5-fold higher than the previous one.

B41: 4E011 anti-DLL3 trispecific protein (other)
chain: B1 chain with K30S, D54T, L58D, T101S, R104Y
notes: as for B1
B41 displayed a dissociation constant Kd of 13 nM. The Kd values of the last two molecules are within 1.5-fold of each other.

B42: 4F03 anti-DLL3 trispecific protein (other)
chain: B1 chain with K30Q, A53Y, L58D, T101R, R104Y
notes: as for B1
Molecule B42 gave a dissociation constant Kd of 12 nM.

B43: 4D08 anti-DLL3 trispecific protein (other)
chain: B1 chain with K30N, L58H, T101L, R104Y
notes: as for B1
As to B43, binding was put at a Kd of 5.9 nM.

B44: 4A07 anti-DLL3 trispecific protein (other)
chain: B1 chain with S28K, K30S, R104Y, T105R
notes: as for B1
Molecule B44 yielded an equilibrium dissociation constant (Kd) of 9.8 nM. Compared with the last molecule, the Kd is about 1.7-fold higher.

B45: 4B05 anti-DLL3 trispecific protein (other)
chain: B1 chain with S28R, K30S, S56H, L58D, R104Y, Y106H
notes: as for B1
As for B45, the affinity, expressed as Kd, was 18 nM. Compared with the last molecule, the Kd is about 1.8-fold higher.

B46: 4C07 anti-DLL3 trispecific protein (other)
chain: B1 chain with S28K, K30S, T57K, L58D, R104L
notes: as for B1
In turn, B46 had an equilibrium dissociation constant (Kd) of 7.5 nM.

B47: 4E08 anti-DLL3 trispecific protein (other)
chain: B1 chain with A53T, L58D, R99K, R104Y
notes: as for B1
As for B47, binding was put at a Kd of 7.2 nM.

B48: 4A06 anti-DLL3 trispecific protein (other)
chain: B1 chain with K30R, A53R, L58D
notes: as for B1
Consider B48, for which the dissociation constant (Kd) was determined as 13 nM.

B49: 4F02 anti-DLL3 trispecific protein (other)
chain: B1 chain with S28T, K30S, A53H, L58D, R104Y
notes: as for B1
The molecule B49 displayed a Kd of 15 nM.

B50: 3H07 anti-DLL3 trispecific protein (other)
chain: B1 chain with S28R, K30S, L58S, T101R, R104Y
notes: as for B1
With B50, binding was put at a Kd of 13 nM.

B51: 4B04 anti-DLL3 trispecific protein (other)
chain: B1 chain with K30L, I51V, A53S, L58D, T101R, R104Y
notes: as for B1
Consider B51, for which binding was characterised by a dissociation constant (Kd) of 12 nM.

B52: 4A05 anti-DLL3 trispecific protein (other)
chain: B1 chain with K30S, M34L, L58D, T101K
notes: as for B1
For the molecule B52, the Kd amounted to 9.4 nM.

B53: 4E09 anti-DLL3 trispecific protein (other)
chain: B1 chain with K30S, M34S, R104S
notes: as for B1
For B53, binding was put at a Kd of 9.1 nM.
